Data set [1] relates to HeLa Kyoto. The experiment in a line: solubility in G1/S (NP-40 vs SDS abundance) (log2 ratio); higher = more soluble. Conditions: cell cycle stage: G1/S.
Data set [2] relates to HeLa Kyoto. Kind of data set: solubility change mitosis vs G1/S (difference of NP-40 vs SDS log2 ratios) (log2 ratio difference); higher = more soluble in mitosis.
In data set [3] the test system is HeLa Kyoto. Kind of data set: melting temperature (median over replicates), in situ; higher = more thermally stable.
Data set [4] deals with HeLa Kyoto. Kind of data set: thermal stability score vs G1/S (z-score of summed log2 fold changes over temperatures); higher = more thermally stable than in G1/S.
The mark [5] stands for this setting: cell cycle stage: early G1 (4.5 h after nocodazole release).
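For melting temperature (median over replicates), in situ in this document: HeLa Kyoto cells synchronized by double thymidine or nocodazole block, proteins quantified by TMT10plex mass spectrometry, three independent biological replicates.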
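For solubility change mitosis vs G1/S (difference of NP-40 vs SDS log2 ratios) in this document: synchronized HeLa Kyoto cells (double thymidine block for G1/S, nocodazole release for mitosis), protein amounts in NP-40 versus SDS lysates quantified by mass spectrometry, three biological replicates.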
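For solubility in G1/S (NP-40 vs SDS abundance) in this document: HeLa Kyoto cells arrested at G1/S by double thymidine block, proteins quantified by TMT10plex mass spectrometry in mild NP-40 versus SDS extracts, three biological replicates.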
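For thermal stability score vs G1/S (z-score of summed log2 fold changes over temperatures) in this document: synchronized HeLa Kyoto cells, proteins quantified by TMT10plex mass spectrometry, three biological replicates, mitosis taken 0.5 h after nocodazole release, G1/S directly after double thymidine block.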

As for “MSKTNKSKSGSRSSRSRSASRSRSRSFSKSRSRSRSLSRSRKRRLSSRSRSRSYSPAHNRERNHPRVYQNRDFRGHNRGYRRPYYFRGRNRGFYPWGQYNRGGYGNYRSNWQNYRQAYSPRRGRSRSRSPKRRSPSPRSRSHSRNSDKSSSDRSRRSSSSRSSSNHSRVESSKRKSAKEKKSSSKDSRPSQAAGDNQGDEAKEQTFSGGTSQDTKASESSKPWPDATYGTGSASRASAVSELSPRERSPALKSPLQSVVVRRRSPRPSPVPKPSPPLSSTSQMGSTLPSGAGYQSGTHQGQFDHGSGSLSPSKKSPVGKSPPSTGSTYGSSQKEESAASGGAAYTKRYLEEQKTENGKDKEQKQTNTDKEKIKEKGSFSDTGLGDGKMKSDSFAPKTDSEKPFRGSQSPKRYKLRDDFEKKMADFHKEEMDDQDKDKAKGRKESEFDDEPKFMSKVIGANKNQEEEKSGKWEGLVYAPPGKEKQRKTEELEEESFPERSKKEDRGKRSEGGHRGFVPEKNFRVTAYKAVQEKSSSPPPRKTSESRDKLGAKGDFPTGKSSFSITREAQVNVRMDSFDEDLARPSGLLAQERKLCRDLVHSNKKEQEFRSIFQHIQSAQSQRSPSELFAQHIVTIVHHVKEHHFGSSGMTLHERFTKYLKRGTEQEAAKNKKSPEIHRRIDISPSTFRKHGLAHDEMKSPREPGYKAEGKYKDDPVDLRLDIERRKKHKERDLKRGKSRESVDSRDSSHSRERSAEKTEKTHKGSKKQKKHRRARDRSRSSSSSSQSSHSYKAEEYTEETEEREESTTGFDKSRLGTKDFVGPSERGGGRARGTFQFRARGRGWGRGNYSGNNNNNSNNDFQKRNREEEWDPEYTPKSKKYYLHDDREGEGSDKWVSRGRGRGAFPRGRGRFMFRKSSTSPKWAHDKFSGEEGEIEDDESGTENREEKDNIQPTTE [THRAP3]”, in the data set on HeLa Kyoto [1], the “solubility in G1/S (log2)” value was -1.38. Further, the “solubility change mitosis (log2)” value with HeLa Kyoto [2] came out at 0.46. Further, the figures for the melting temperature with HeLa Kyoto [3] (cell cycle stage: G1/S) and with HeLa Kyoto [3] (cell cycle stage: mitosis) were 50.5 °C and 51.2 °C, respectively. Also, the thermal stability score is -5.24 in the data set with HeLa Kyoto [4] (setting [5]) and -3.44 in the data set with HeLa Kyoto [4] (cell cycle stage: mitosis).

Consider “MLKALFLTMLTLALVKSQDTEETITYTQCTDGYEWDPVRQQCKDIDECDIVPDACKGGMKCVNHYGGYLCLPKTAQIIVNNEQPQQETQPAEGTSGATTGVVAASSMATSGVLPGGGFVASAAAVAGPEMQTGRNNFVIRRNPADPQRIPSNPSHRIQCAAGYEQSEHNVCQDIDECTAGTHNCRADQVCINLRGSFACQCPPGYQKRGEQCVDIDECTIPPYCHQRCVNTPGSFYCQCSPGFQLAANNYTCVDINECDASNQCAQQCYNILGSFICQCNQGYELSSDRLNCEDIDECRTSSYLCQYQCVNEPGKFSCMCPQGYQVVRSRTCQDINECETTNECREDEMCWNYHGGFRCYPRNPCQDPYILTPENRCVCPVSNAMCRELPQSIVYKYMSIRSDRSVPSDIFQIQATTIYANTINTFRIKSGNENGEFYLRQTSPVSAMLVLVKSLSGPREHIVDLEMLTVSSIGTFRTSSVLRLTIIVGPFSF [EFEMP1]”, for which the “solubility in G1/S (log2)” value with HeLa Kyoto [1] was -0.278. In addition, the “solubility change mitosis (log2)” value in the data set on HeLa Kyoto [2] is -0.165. Moreover, the melting temperature with HeLa Kyoto [3] (cell cycle stage: G1/S) was 54.2 °C; in the data set on HeLa Kyoto [3] (cell cycle stage: mitosis) it was 54.1 °C. The results for the thermal stability score in the data set on HeLa Kyoto [4] (setting [5]) and in the data set on HeLa Kyoto [4] (cell cycle stage: mitosis) were 4.52 and 3.96, respectively.

As for “MASPQLCRALVSAQWVAEALRAPRAGQPLQLLDASWYLPKLGRDARREFEERHIPGAAFFDIDQCSDRTSPYDHMLPGAEHFAEYAGRLGVGAATHVVIYDASDQGLYSAPRVWWMFRAFGHHAVSLLDGGLRHWLRQNLPLSSGKSQPAPAEFRAQLDPAFIKTYEDIKENLESRRFQVVDSRATGRFRGTEPEPRDGIEPGHIPGTVNIPFTDFLSQEGLEKSPEEIRHLFQEKKVDLSKPLVATCGSGVTACHVALGAYLCGKPDVPIYDGSWVEWYMRARPEDVISEGRGKTH [MPST]”, the “solubility in G1/S (log2)” value with HeLa Kyoto [1] came to 0.45. In the data set with HeLa Kyoto [2], the “solubility change mitosis (log2)” value was -0.0783. Moreover, the melting temperature is 50.1 °C with HeLa Kyoto [3] (cell cycle stage: G1/S) and 50.5 °C in the data set with HeLa Kyoto [3] (cell cycle stage: mitosis). Moreover, the thermal stability score is 3.35 with HeLa Kyoto [4] (setting [5]) and 0.97 in the data set with HeLa Kyoto [4] (cell cycle stage: mitosis).

Regarding DST, in the data set on HeLa Kyoto [1], the “solubility in G1/S (log2)” value was -0.363. Besides, the “solubility change mitosis (log2)” value with HeLa Kyoto [2] came to 0.045. The values for the melting temperature with HeLa Kyoto [3] (cell cycle stage: G1/S) and in the data set with HeLa Kyoto [3] (cell cycle stage: mitosis) were 49.1 °C and 49.2 °C, respectively. In addition, the thermal stability score in the data set on HeLa Kyoto [4] (setting [5]) worked out at 0.147; in the data set on HeLa Kyoto [4] (cell cycle stage: mitosis), 1.16.

As to “MAALLRRLLQRERPSAASGRPVGRREANLGTDAGVAVRVRFAPSPTGFLHLGGLRTALYNYIFAKKYQGSFILRLEDTDQTRVVPGAAENIEDMLEWAGIPPDESPRRGGPAGPYQQSQRLELYAQATEALLKTGAAYPCFCSPQRLELLKKEALRNHQTPRYDNRCRNMSQEQVAQKLAKDPKPAIRFRLEQVVPAFQDLVYGWNRHEVASVEGDPVIMKSDGFPTYHLACVVDDHHMGISHVLRGSEWLVSTAKHLLLYQALGWQPPHFAHLPLLLNRDGSKLSKRQGDVFLEHFAADGFLPDSLLDIITNCGSGFAENQMGRTLPELITQFNLTQVTCHSALLDLEKLPEFNRLHLQRLVSNESQRRQLVGKLQVLVEEAFGCQLQNRDVLNPVYVERILLLRQGHICRLQDLVSPVYSYLWTRPAVGRAQLDAISEKVDVIAKRVLGLLERSSMSLTQDMLNGELKKLSEGLEGTKYSNVMKLLRMALSGQQQGPPVAEMMLALGPKEVRERIQKVVSS [EARS2]”, in the data set with HeLa Kyoto [1], the “solubility in G1/S (log2)” value turned out to be 0.363. Further, the “solubility change mitosis (log2)” value in the data set with HeLa Kyoto [2] was -0.0812. Further, the melting temperature in the data set with HeLa Kyoto [3] (cell cycle stage: G1/S) is 49.2 °C; in the data set with HeLa Kyoto [3] (cell cycle stage: mitosis), 49.5 °C. The thermal stability score with HeLa Kyoto [4] (setting [5]) is -0.077; with HeLa Kyoto [4] (cell cycle stage: mitosis) it was 1.7.

“MMGHRPVLVLSQNTKRESGRKVQSGNINAAKTIADIIRTCLGPKSMMKMLLDPMGGIVMTNDGNAILREIQVQHPAAKSMIEISRTQDEEVGDGTTSVIILAGEMLSVAEHFLEQQMHPTVVISAYRKALDDMISTLKKISIPVDISDSDMMLNIINSSITTKAISRWSSLACNIALDAVKMVQFEENGRKEIDIKKYARVEKIPGGIIEDSCVLRGVMINKDVTHPRMRRYIKNPRIVLLDSSLEYKKGESQTDIEITREEDFTRILQMEEEYIQQLCEDIIQLKPDVVITEKGISDLAQHYLMRANITAIRRVRKTDNNRIARACGARIVSRPEELREDDVGTGAGLLEIKKIGDEYFTFITDCKDPKACTILLRGASKEILSEVERNLQDAMQVCRNVLLDPQLVPGGGASEMAVAHALTEKSKAMTGVEQWPYRAVAQALEVIPRTLIQNCGASTIRLLTSLRAKHTQENCETWGVNGETGTLVDMKELGIWEPLAVKLQTYKTAVETAVLLLRIDDIVSGHKKKGDDQSRQGGAPDAGQE [CCT3]”: in the data set on HeLa Kyoto [1], the “solubility in G1/S (log2)” value came to 0.216. Further, in the data set on HeLa Kyoto [2], the “solubility change mitosis (log2)” value was -0.131. Further, the melting temperature is 54 °C in the data set on HeLa Kyoto [3] (cell cycle stage: G1/S) and 53.6 °C in the data set on HeLa Kyoto [3] (cell cycle stage: mitosis). Further, the thermal stability score with HeLa Kyoto [4] (setting [5]) was 0.0574; in the data set on HeLa Kyoto [4] (cell cycle stage: mitosis), -0.798.

With “MSRLRALLGLGLLVAGSRVPRIKSQTIACRSGPTWWGPQRLNSGGRWDSEVMASTVVKYLSQEEAQAVDQELFNEYQFSVDQLMELAGLSCATAIAKAYPPTSMSRSPPTVLVICGPGNNGGDGLVCARHLKLFGYEPTIYYPKRPNKPLFTALVTQCQKMDIPFLGEMPAEPMTIDELYELVVDAIFGFSFKGDVREPFHSILSVLKGLTVPIASIDIPSGWDVEKGNAGGIQPDLLISLTAPKKSATQFTGRYHYLGGRFVPPALEKKYQLNLPPYPDTECVYRLQ [APOA1BP]”, the “solubility in G1/S (log2)” value in the data set with HeLa Kyoto [1] was 0.462. Moreover, the “solubility change mitosis (log2)” value in the data set with HeLa Kyoto [2] worked out at 0.417. In addition, the melting temperature with HeLa Kyoto [3] (cell cycle stage: G1/S) worked out at 56.4 °C; in the data set with HeLa Kyoto [3] (cell cycle stage: mitosis), 55.3 °C. Further, the thermal stability score was -2.06 with HeLa Kyoto [4] (setting [5]) and -3.77 with HeLa Kyoto [4] (cell cycle stage: mitosis).

Regarding “MLSALARPASAALRRSFSTSAQNNAKVAVLGASGGIGQPLSLLLKNSPLVSRLTLYDIAHTPGVAADLSHIETKAAVKGYLGPEQLPDCLKGCDVVVIPAGVPRKPGMTRDDLFNTNATIVATLTAACAQHCPEAMICVIANPVNSTIPITAEVFKKHGVYNPNKIFGVTTLDIVRANTFVAELKGLDPARVNVPVIGGHAGKTIIPLISQCTPKVDFPQDQLTALTGRIQEAGTEVVKAKAGAGSATLSMAYAGARFVFSLVDAMNGKEGVVECSFVKSQETECTYFSTPLLLGKKGIEKNLGIGKVSSFEEKMISDAIPELKASIKKGEDFVKTLK [MDH2]”, in the data set with HeLa Kyoto [1], the “solubility in G1/S (log2)” value is 0.383. In addition, the “solubility change mitosis (log2)” value with HeLa Kyoto [2] was -0.0422. For the same substance, the melting temperature with HeLa Kyoto [3] (cell cycle stage: G1/S) came to 56.9 °C; with HeLa Kyoto [3] (cell cycle stage: mitosis) it was 57.2 °C. Also, the thermal stability score with HeLa Kyoto [4] (setting [5]) is -0.843; in the data set on HeLa Kyoto [4] (cell cycle stage: mitosis), -1.62.

As for ARFGEF1, the “solubility in G1/S (log2)” value in the data set on HeLa Kyoto [1] was -0.319. In addition, the “solubility change mitosis (log2)” value in the data set on HeLa Kyoto [2] is -0.109. The results for the melting temperature with HeLa Kyoto [3] (cell cycle stage: G1/S) and in the data set on HeLa Kyoto [3] (cell cycle stage: mitosis) were 50.8 °C and 50.1 °C, respectively. The thermal stability score was found to be 0.51 in the data set on HeLa Kyoto [4] (setting [5]) and 0.0301 with HeLa Kyoto [4] (cell cycle stage: mitosis).

With “MAPHDPGSLTTLVPWAAALLLALGVERALALPEICTQCPGSVQNLSKVAFYCKTTRELMLHARCCLNQKGTILGLDLQNCSLEDPGPNFHQAHTTVIIDLQANPLKGDLANTFRGFTQLQTLILPQHVNCPGGINAWNTITSYIDNQICQGQKNLCNNTGDPEMCPENGSCVPDGPGLLQCVCADGFHGYKCMRQGSFSLLMFFGILGATTLSVSILLWATQRRKAKTS [ATRAID]”, the “solubility in G1/S (log2)” value in the data set on HeLa Kyoto [1] is -0.19. Also, the “solubility change mitosis (log2)” value with HeLa Kyoto [2] came out at 0.252. Moreover, the melting temperature in the data set with HeLa Kyoto [3] (cell cycle stage: G1/S) worked out at 53.9 °C; with HeLa Kyoto [3] (cell cycle stage: mitosis), 54.8 °C. For the same substance, the thermal stability score with HeLa Kyoto [4] (setting [5]) is 0.782; with HeLa Kyoto [4] (cell cycle stage: mitosis) it was 0.854.

Values taken from the supplement of paper PMC5998384.
